Results as given in the supplement of paper PMC9112550, “Optimization of the antimicrobial peptide Bac7 by deep mutational scanning” (BMC Biology, 2022).

Test system: Escherichia coli TOP10
Assay: shrunken log2 fold change of peptide-encoding DNA abundance (4.5 h post-induction vs induction); higher = less antimicrobial activity (less host growth inhibition)
Conditions: time post-induction: 4.5 h; library: site-saturation at positions 5, 18, 19, 20
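Also: peptides expressed intracellularly from a pBAD plasmid library in pooled LB shake-flask culture, induced with 0.3% L-arabinose, DNA abundance read by NGS, three biological replicates, DESeq2 with apeglm shrinkage.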

Sequence	shrunken log2 fold change
RRIRSRPPRLPRPRPRPDENPRP	0.11
RRIRSRPPRLPRPRPRPDFLPRP	-0.0689
RRIRSRPPRLPRPRPRPDFVPRP	-0.106
RRIRSRPPRLPRPRPRPDGPPRP	0.0211
RRIRSRPPRLPRPRPRPDGQPRP	-0.00208
RRIRSRPPRLPRPRPRPDHLPRP	-0.0228
RRIRSRPPRLPRPRPRPDHQPRP	-0.263
RRIRSRPPRLPRPRPRPDICPRP	-0.0721
RRIRSRPPRLPRPRPRPDIIPRP	-0.16
RRIRSRPPRLPRPRPRPDIPPRP	-0.178
RRIRSRPPRLPRPRPRPDITPRP	0.0856
RRIRSRPPRLPRPRPRPDKFPRP	-0.143
RRIRSRPPRLPRPRPRPDLMPRP	-0.0144
RRIRSRPPRLPRPRPRPDMMPRP	-0.36
RRIRSRPPRLPRPRPRPDNYPRP	-0.303
RRIRSRPPRLPRPRPRPDPHPRP	-0.151
RRIRSRPPRLPRPRPRPDPTPRP	0.035
RRIRSRPPRLPRPRPRPDQDPRP	0.142
RRIRSRPPRLPRPRPRPDRLPRP	-0.168
RRIRSRPPRLPRPRPRPDRVPRP	-0.144
RRIRSRPPRLPRPRPRPDSAPRP	0.0412
RRIRSRPPRLPRPRPRPDSRPRP	0.148
RRIRSRPPRLPRPRPRPDSYPRP	-0.221
RRIRSRPPRLPRPRPRPDTAPRP	-0.0215
RRIRSRPPRLPRPRPRPDTHPRP	-0.448

Sequence	shrunken log2 fold change
RRIRSRPPRLPRPRPRPDVTPRP	-0.0165
RRIRSRPPRLPRPRPRPDWAPRP	0.236
RRIRSRPPRLPRPRPRPDWCPRP	0.224
RRIRSRPPRLPRPRPRPDYAPRP	-0.0222
RRIRSRPPRLPRPRPRPDYDPRP	-0.0947
RRIRSRPPRLPRPRPRPEAVPRP	-0.0338
RRIRSRPPRLPRPRPRPEAWPRP	0.0495
RRIRSRPPRLPRPRPRPEAYPRP	-0.141
RRIRSRPPRLPRPRPRPECSPRP	0.201
RRIRSRPPRLPRPRPRPEDIPRP	-0.0081
RRIRSRPPRLPRPRPRPEDMPRP	-0.088
RRIRSRPPRLPRPRPRPEEGPRP	0.0515
RRIRSRPPRLPRPRPRPEHFPRP	-0.246
RRIRSRPPRLPRPRPRPEHRPRP	-0.00155
RRIRSRPPRLPRPRPRPEIIPRP	-0.0448
RRIRSRPPRLPRPRPRPELLPRP	-0.111
RRIRSRPPRLPRPRPRPEMAPRP	1.22
RRIRSRPPRLPRPRPRPEMKPRP	0.114
RRIRSRPPRLPRPRPRPERQPRP	0.1
RRIRSRPPRLPRPRPRPERWPRP	1.14
RRIRSRPPRLPRPRPRPESPPRP	0.32
RRIRSRPPRLPRPRPRPEVEPRP	0.112
RRIRSRPPRLPRPRPRPEVLPRP	-0.0111
RRIRSRPPRLPRPRPRPEVVPRP	0.471
RRIRSRPPRLPRPRPRPEWGPRP	0.0115

Sequence	shrunken log2 fold change
RRIRSRPPRLPRPRPRPEWIPRP	0.021
RRIRSRPPRLPRPRPRPEWTPRP	0.329
RRIRSRPPRLPRPRPRPEYCPRP	0.184
RRIRSRPPRLPRPRPRPEYRPRP	0.2
RRIRSRPPRLPRPRPRPFCPPRP	-0.31
RRIRSRPPRLPRPRPRPFEIPRP	0.0385
RRIRSRPPRLPRPRPRPFEKPRP	0.00827
RRIRSRPPRLPRPRPRPFFVPRP	-0.184
RRIRSRPPRLPRPRPRPFGKPRP	-0.0207
RRIRSRPPRLPRPRPRPFGTPRP	0.0399
RRIRSRPPRLPRPRPRPFHSPRP	-0.0807
RRIRSRPPRLPRPRPRPFKLPRP	-0.71
RRIRSRPPRLPRPRPRPFLDPRP	-0.149
RRIRSRPPRLPRPRPRPFLEPRP	-0.248
RRIRSRPPRLPRPRPRPFMFPRP	-0.156
RRIRSRPPRLPRPRPRPFMGPRP	-0.216
RRIRSRPPRLPRPRPRPFMMPRP	-0.643
RRIRSRPPRLPRPRPRPFNDPRP	-0.223
RRIRSRPPRLPRPRPRPFNLPRP	-0.218
RRIRSRPPRLPRPRPRPFNWPRP	0.0339
RRIRSRPPRLPRPRPRPFPYPRP	-0.115
RRIRSRPPRLPRPRPRPFRQPRP	3.58
RRIRSRPPRLPRPRPRPFSNPRP	-0.218
RRIRSRPPRLPRPRPRPFSPPRP	-0.195
RRIRSRPPRLPRPRPRPFTIPRP	-0.0987

Sequence	shrunken log2 fold change
RRIRSRPPRLPRPRPRPFVDPRP	-0.228
RRIRSRPPRLPRPRPRPFVNPRP	-0.99
RRIRSRPPRLPRPRPRPFWHPRP	-0.0146
RRIRSRPPRLPRPRPRPGCEPRP	0.145
RRIRSRPPRLPRPRPRPGDDPRP	0.0869
RRIRSRPPRLPRPRPRPGDFPRP	0.0535
RRIRSRPPRLPRPRPRPGDTPRP	1.51
RRIRSRPPRLPRPRPRPGECPRP	-0.181
RRIRSRPPRLPRPRPRPGEQPRP	0.00836
RRIRSRPPRLPRPRPRPGFIPRP	-0.205
RRIRSRPPRLPRPRPRPGFPPRP	-0.00277
RRIRSRPPRLPRPRPRPGGSPRP	0.0707
RRIRSRPPRLPRPRPRPGHCPRP	0.0298
RRIRSRPPRLPRPRPRPGHFPRP	-0.0564
RRIRSRPPRLPRPRPRPGHIPRP	-0.109
RRIRSRPPRLPRPRPRPGICPRP	0.137
RRIRSRPPRLPRPRPRPGIYPRP	-0.135
RRIRSRPPRLPRPRPRPGKHPRP	0.0205
RRIRSRPPRLPRPRPRPGLCPRP	0.238
RRIRSRPPRLPRPRPRPGLLPRP	-0.0369
RRIRSRPPRLPRPRPRPGNKPRP	-0.194
RRIRSRPPRLPRPRPRPGPDPRP	0.332
RRIRSRPPRLPRPRPRPGQEPRP	-0.0151
RRIRSRPPRLPRPRPRPGRHPRP	0.0088
RRIRSRPPRLPRPRPRPGRTPRP	0.0636

Sequence	shrunken log2 fold change
RRIRSRPPRLPRPRPRPGTHPRP	-0.146
RRIRSRPPRLPRPRPRPGTRPRP	-0.0748
RRIRSRPPRLPRPRPRPGYVPRP	-0.809
RRIRSRPPRLPRPRPRPGYWPRP	-0.0968
RRIRSRPPRLPRPRPRPHCYPRP	-0.302
RRIRSRPPRLPRPRPRPHFRPRP	-0.197
RRIRSRPPRLPRPRPRPHGNPRP	-0.00459
RRIRSRPPRLPRPRPRPHGYPRP	-0.244
RRIRSRPPRLPRPRPRPHHRPRP	-0.43
RRIRSRPPRLPRPRPRPHIIPRP	-0.443
RRIRSRPPRLPRPRPRPHMGPRP	-0.0366
RRIRSRPPRLPRPRPRPHNLPRP	-0.33
RRIRSRPPRLPRPRPRPHPFPRP	-0.25
RRIRSRPPRLPRPRPRPHPMPRP	-0.236
RRIRSRPPRLPRPRPRPHTPPRP	-0.318
RRIRSRPPRLPRPRPRPHTSPRP	-0.445
RRIRSRPPRLPRPRPRPHVVPRP	0.0681
RRIRSRPPRLPRPRPRPHWGPRP	-0.107
RRIRSRPPRLPRPRPRPHYEPRP	-0.573
RRIRSRPPRLPRPRPRPIAAPRP	0.333
RRIRSRPPRLPRPRPRPIAKPRP	-0.0775
RRIRSRPPRLPRPRPRPICDPRP	0.228
RRIRSRPPRLPRPRPRPICHPRP	-0.179
RRIRSRPPRLPRPRPRPICIPRP	-0.494
RRIRSRPPRLPRPRPRPICVPRP	-0.111

Sequence	shrunken log2 fold change
RRIRSRPPRLPRPRPRPICWPRP	0.0446
RRIRSRPPRLPRPRPRPIDMPRP	-0.00448
RRIRSRPPRLPRPRPRPIEHPRP	-0.0344
RRIRSRPPRLPRPRPRPIESPRP	-0.385
RRIRSRPPRLPRPRPRPIGWPRP	0.142
RRIRSRPPRLPRPRPRPIHIPRP	-0.157
RRIRSRPPRLPRPRPRPIKEPRP	-0.0466
RRIRSRPPRLPRPRPRPIKHPRP	-0.0703
RRIRSRPPRLPRPRPRPIKQPRP	-0.13
RRIRSRPPRLPRPRPRPIKRPRP	0.0449
RRIRSRPPRLPRPRPRPIMHPRP	-0.455
RRIRSRPPRLPRPRPRPIPGPRP	-0.0336
RRIRSRPPRLPRPRPRPIQCPRP	0.0235
RRIRSRPPRLPRPRPRPISEPRP	-0.0465
RRIRSRPPRLPRPRPRPITVPRP	-0.132
RRIRSRPPRLPRPRPRPITWPRP	-0.284
RRIRSRPPRLPRPRPRPIVMPRP	0.0137
RRIRSRPPRLPRPRPRPIVWPRP	-0.0774
RRIRSRPPRLPRPRPRPIWGPRP	0.0936
RRIRSRPPRLPRPRPRPIYAPRP	0.0432
RRIRSRPPRLPRPRPRPKCDPRP	0.00444
RRIRSRPPRLPRPRPRPKCIPRP	-0.256
RRIRSRPPRLPRPRPRPKCVPRP	-0.138
RRIRSRPPRLPRPRPRPKCYPRP	-0.16
RRIRSRPPRLPRPRPRPKDGPRP	0.307
